Data on one molecule can be found in patent publication CN115925884A (SUN YAT SEN UNIV CANCER CENTER SUN YAT SEN UNIV AFFILIATED …, dated 2023).

In this experiment the target is T1, EBV gB重组蛋白 (recombinant EB virus gB protein with C-terminal 6xHis tag) (EB病毒 (Epstein-Barr virus), UniProt P0C762 23-683, biotin label in the BLI assay (gB-Biotin), site not stated).
T1 construct: Biotinylated for BLI; unlabelled in the Western blot; also called gB蛋白; gB抗原
T1 chain: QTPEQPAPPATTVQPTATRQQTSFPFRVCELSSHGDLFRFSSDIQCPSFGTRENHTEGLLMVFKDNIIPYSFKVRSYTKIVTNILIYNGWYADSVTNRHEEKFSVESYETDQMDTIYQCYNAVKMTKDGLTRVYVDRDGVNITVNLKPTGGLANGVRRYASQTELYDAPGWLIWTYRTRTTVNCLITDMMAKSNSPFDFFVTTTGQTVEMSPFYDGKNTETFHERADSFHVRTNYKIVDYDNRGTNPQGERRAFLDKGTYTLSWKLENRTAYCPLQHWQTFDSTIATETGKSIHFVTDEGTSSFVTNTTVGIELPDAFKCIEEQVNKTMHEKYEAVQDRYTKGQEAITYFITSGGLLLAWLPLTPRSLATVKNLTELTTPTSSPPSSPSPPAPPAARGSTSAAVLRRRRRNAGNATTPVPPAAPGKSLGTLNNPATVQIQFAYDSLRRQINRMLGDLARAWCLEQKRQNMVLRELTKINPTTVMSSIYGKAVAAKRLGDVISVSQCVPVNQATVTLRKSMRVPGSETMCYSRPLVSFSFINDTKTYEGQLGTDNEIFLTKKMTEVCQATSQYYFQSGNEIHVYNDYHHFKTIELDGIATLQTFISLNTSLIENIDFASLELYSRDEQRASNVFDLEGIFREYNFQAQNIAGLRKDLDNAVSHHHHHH
Briefly: BLI, biotinylated gB on SA biosensor, 0-200 nM antibody in solution. For orientation: In BLI a coated tip is dipped into the sample, and binding shifts an interference pattern.

B1: 4F10抗体 (monoclonal antibody against EB virus gB antigen) (antibody, V domains shown)
VH: QITLKESGAEMKKPGSSVKVSCKSSDTFKSYGIGWVRQAPGQGLEWMGGVIPVTGTRSYPQKFQGRVTITADESTSTAYMELSRLRSEDTAVYYCGRYMSYLYGMDVWGQGTTVTVSS
VL: DIVLTQTPLSSPVTLGQPASISCRSSQGLVYSDGDTYLNWFQQRPGQSPRRLIYKVSNRDSGVPDRFSGSGSGTDFTLRISRVEAEDVGVYYCMQGAHWPPTFGQGTKLEIK
notes: For flow cytometry the antibody carried a '403' fluorescent label; also called 抗体4F10
On to B1, for which the Kd worked out at 1 pM.

Broadly, the Kd is a measure of binding affinity in units of concentration.
